Results published in patent US20250367237A1 (TENEOBIO, published 2025).

Experiments:
[1] = molecular target: T1, human c-Kit, GNNK- isoform, expressed on SEM cells (human, UniProt P10721 26-976); assay: flow cytometry cell binding dose curve, SEM cells expressing human GNNK- c-Kit
T1 chain: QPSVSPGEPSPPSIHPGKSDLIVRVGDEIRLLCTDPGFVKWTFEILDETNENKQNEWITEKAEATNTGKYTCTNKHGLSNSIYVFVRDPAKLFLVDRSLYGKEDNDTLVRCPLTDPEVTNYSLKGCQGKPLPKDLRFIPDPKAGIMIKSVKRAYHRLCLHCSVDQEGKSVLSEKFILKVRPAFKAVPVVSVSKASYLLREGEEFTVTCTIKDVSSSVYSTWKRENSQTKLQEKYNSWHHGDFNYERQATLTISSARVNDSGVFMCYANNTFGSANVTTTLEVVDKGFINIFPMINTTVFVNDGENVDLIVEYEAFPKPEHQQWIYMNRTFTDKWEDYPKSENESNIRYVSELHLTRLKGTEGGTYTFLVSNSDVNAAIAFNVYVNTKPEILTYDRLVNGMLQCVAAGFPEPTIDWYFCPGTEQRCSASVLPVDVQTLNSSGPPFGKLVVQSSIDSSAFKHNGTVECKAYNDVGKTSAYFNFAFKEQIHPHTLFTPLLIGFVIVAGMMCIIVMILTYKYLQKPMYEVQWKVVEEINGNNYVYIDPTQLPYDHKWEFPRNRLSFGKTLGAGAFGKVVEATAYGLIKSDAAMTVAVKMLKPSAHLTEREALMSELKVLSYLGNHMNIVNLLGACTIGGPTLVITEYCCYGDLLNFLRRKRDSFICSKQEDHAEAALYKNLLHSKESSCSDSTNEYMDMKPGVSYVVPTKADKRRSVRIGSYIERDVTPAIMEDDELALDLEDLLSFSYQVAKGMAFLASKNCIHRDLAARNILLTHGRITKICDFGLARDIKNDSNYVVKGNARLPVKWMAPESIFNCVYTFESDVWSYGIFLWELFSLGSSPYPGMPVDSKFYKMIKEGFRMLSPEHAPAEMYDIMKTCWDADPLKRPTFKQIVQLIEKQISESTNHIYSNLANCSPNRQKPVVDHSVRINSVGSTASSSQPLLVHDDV

[2] = molecular target: T2, human c-Kit expressed on NOMO-1 cells (human, UniProt P10721 26-976); assay: flow cytometry cell binding dose curve, NOMO-1 cells expressing human c-Kit
T2 construct: Endogenous c-Kit of the NOMO-1 AML cell line
Description: (§1) The single domain antibodies were tested at a starting concentration of 50 nM, followed by 5-fold serial dilutions for an 8-point dose curve. All washes and dilutions of cells, antibodies, and reagents were performed using flow buffer (lx phosphate buffered saline (PBS), 1% bovine serum albumin (BSA), and 0.1% NaN₃). Cells were pelleted and resuspended at 1×10⁶ cells/mL in flow buffer. Then, 50 μL cells were combined with 50 μL of test antibody and incubated 30 minutes at 4° C., followed by two wash steps with flow buffer. Cells were then resuspended in 50 μL PE-conjugated secondary diluted to 1.25 μg/mL (Southern Biotech #2042-09) and incubated for 20 minutes at 4° C. After two wash steps, cells were resuspended in flow buffer and analyzed using a BD Celesta system. PE mean fluorescence intensity was plotted as a fold over background (cells incubated with secondary detection antibody only).
(§2) To determine cell binding EC50 values for example anti-c-Kit single domain antibodies of the present disclosure, cell binding dose curves were performed on SEM cells expressing human GNNK+c-Kit isoform, SEM cells expressing human GNNK− c-Kit isoform, and NOMO-1 cells expressing human c-Kit. The single domain antibodies were tested at a starting dose of 50 nM, followed by 5-fold serial dilutions for an 8-point dose curve as described in Example 2. The transformed data were plotted as an xy-graph using the non-linear regression curve fit (available in GraphPad Prism 8.4.3) to obtain the EC50 values (nM), which are summarized in Table E2.

[3] = molecular target: T2, human c-Kit expressed on NOMO-1 cells; assay: flow cytometry, antibody supernatant on NOMO-1 cells expressing c-Kit, PE secondary
Description: (§3) Pelleted cells were resuspended in flow buffer (lx phosphate buffered saline (PBS), 1% bovine serum albumin (BSA), and 0.1% NaN₃) at 1.25×10⁶ cells/mL. Antibody-containing supernatants were diluted 1:5 in flow buffer and 40 μL cells plus 10 μL diluted antibody supernatant were incubated for 30 minutes at 4° C. Cells were washed with flow buffer and resuspended in 50 μL phycoerythrin (PE)-conjugated secondary antibody (Southern Biotech #2042-09) diluted in flow buffer to 1.25 μg/mL and incubated for 20 minutes at 4° C. After two wash steps, cells were resuspended in flow buffer and analyzed using a Guava easyCyte 8HT system. Table E1 summarizes the target binding activity of the anti-c-Kit single domain antibodies as fold over background MFI signal.

[4] = molecular target: T1, human c-Kit, GNNK- isoform, expressed …; assay: flow cytometry, antibody supernatant on SEM cells expressing human c-Kit GNNK-, PE secondary
[5] = molecular target: T3, human c-Kit, GNNK+ isoform, expressed on SEM cells (human, UniProt P10721 26-976); assay: flow cytometry, antibody supernatant on SEM cells expressing human c-Kit GNNK+, PE secondary
T3 construct: also called SEM (GNNK+); CD117
Description: as §3

[6] = molecular target: T4, recombinant human c-Kit (Acro Biosystems, #CD7-H52H4) (human, UniProt P10721 26-520); assay: BLI (Octet HTX), antibody on AHC sensors, c-Kit in solution, 1:1 model
T4 construct: Bought protein; It was loaded on Ni-NTA sensors for binning, so it probably carries a His tag; also called antigen
Description: Table E3 summarizes affinity and epitope bin information for example anti-c-Kit single domain antibodies of the present disclosure. The affinity of each single domain antibody to recombinant human c-Kit (Acro Biosystems, #CD7-H52H4) was measured by Bio-layer interferometry (BLI) using an Octet HTX. AHC (Anti-hIgG Fc Capture) sensors were used to immobilize test antibody at 5 μg/mL. After baseline readings, sensors were dipped into antigen solutions (starting at 500 nM followed by a 7-point, 2-fold dilution series). Association and dissociation were measured for 180 and 240 seconds, respectively. Data were analyzed with Octet Data Analysis v11.0 HT (ForteBio) using a standard 1:1 binding model. Epitope bins for the single domain antibodies were determined by an in-tandem competition BLI binding experiment using an Octet HTX. The antigen (5 μg/mL) was loaded on the sensor Ni-NTA sensor, followed by a baseline in kinetic buffer. The antigen coated sensor was then dipped into a saturating concentration Antibody 1. A second baseline was then set for 300 seconds. The antigen-Antibody 1 complex was dipped into Antibody 2 solution for 180 seconds and then allowed to dissociate.

[7] = molecular target: T3, human c-Kit, GNNK+ isoform, expressed …; assay: flow cytometry cell binding dose curve, SEM cells expressing human GNNK+ c-Kit
Description: as §1, §2

Row | Binder | EC50 [1] [pM] | EC50 [2] [pM] | fold over background MFI signal [3] [fold over background] | fold over background MFI signal [4] [fold over background] | fold over background MFI signal [5] [fold over background] | Kd [6] [pM] | EC50 [7] [pM]
1 | anti-c-Kit single domain antibody Clone ID # 408198 (VHH, also called F18 family) VHH: QLQLQESGPGLVKPSETLSLTCTVSGGSISSSSYYWGWIRQPPGKGLEWIGSIDYNGGTYNNPSLKSRVTISVDTSKNQFSLKLSYVTAADTAVYYCARQNPRRYASGASDYRGQGTLVTVSS | 580 | 320 | 45.7 | 103 | 388 | 7280 | 250
2 | anti-c-Kit single domain antibody Clone ID # 408366 (VHH, also called F06 family) VHH: EVQLLESGGGLVQPGGSLRLSCAASGLTISTYAMSWVRQAPGKGLEWVSAISTGGSSTYYADSVKGRFTISRDNSKNTLYLQMNSLRAEDTAVYYCATGYDSSGHYYGGFDYRGQGTLVTVSS | 90 | 390 | 43.2 | 1760 | 945 | 4710 | 80
3 | anti-c-Kit single domain antibody Clone ID # 407921 (VHH, also called F06 family) VHH: EVQLLESGGGLVQPGGSLRLSCAASGFTFDSYAMSWVRQAPGKGLEWVSAISVRGGSTYYADSVKGRFTISRDNSKNTLYLQMNSLRAEDTAVYSCATGYDPSGHYYGGFDYRGQGTLVTVSS | 30 | 260 | 30.5 | 1750 | 814 | 2770 | 30
4 | anti-c-Kit single domain antibody Clone ID # 407922 (VHH, also called F06 family) VHH: EVQLLESGGGLVQPGGSLRLSCAASGLTISSYAMSWVRQAPGKGLEWVSAISTGGSRTYYADSVKGRFTISRDNSKNTLYLQMNSLRAEDTAVYFCATGYDSSGHYYGGFDYRGQGTLVTVSS | – | – | 31.1 | 1740 | 829 | – | –
5 | anti-c-Kit single domain antibody Clone ID # 408389 (VHH, also called F06 family) VHH: EVQLLESGGGLVQPGGSLRLSCAASGFTFDSYAMSWVRQAPGEGLEWVSAISTGGGSTYYADSVKGRFTISRDNSKNMLFLQMNSLRAEDTAVYSCATGYDSSGYYYGGFDYRGQGTLVTVSS | – | – | 43.9 | 1790 | 934 | – | –
